Laboratory results from patent US20210388074A1 (LUDWIG INSTITUTE FOR CANCER RESEARCH, published 2021).

Tests used:
[1] = target: T1, human recombinant TGF-b3 (Shenandoah Biotechnology, cat. #100-109) (human, UniProt P10600 301-412); assay: ELISA; scFv culture on plate-coated TGF-b3
T1 construct: Bought recombinant protein, coated on ELISA plates; also called TGF-β3; hTGF-ß3
T1 sequence: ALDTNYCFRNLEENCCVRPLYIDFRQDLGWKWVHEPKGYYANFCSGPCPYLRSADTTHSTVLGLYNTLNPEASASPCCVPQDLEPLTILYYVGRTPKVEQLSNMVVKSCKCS
Experimental: (§1) To perform the ELISA a 96-well maxisorp Nunc-immunoplate (Thermo Scientific, cat. #2022-10) was coated with 50 μl/well of human recombinant TGF-b1 (Acrobiosystems, cat. #TG1-H4212), TGF-b2 (R&D Systems, cat. #302-B2-010) and human recombinant TGF-b3 (Shenandoah Biotechnology, cat. #100-109) at 500 ng/ml in PBS at 4° C. overnight. Wells were blocked by the direct addition of 230 μl of block solution (5% skimmed milk/0.05% Tween20 in PBS) without first washing the plate. Blocking was carried out for 45 min with gentle agitation. Concurrently, the bacterial cultures containing the expressed scFv and the rescued phage were blocked by the direct addition of 120 μl of block solution. The blocked maxisorp plate was washed 3× with PBST (PBS+0.1% Tween20) before applying 150 μl of blocked scFv or phage culture to the wells. Incubation was performed for 1 h at room temperature with gentle agitation before washing of the wells with 4×PBST.
(§2) For the scFv ELISA, 100 μl of primary mouse 9E10 anti-cmyc Ab diluted 1/1000 in PBS+1% BSA was added to wells, followed by a 1 h incubation at room temperature with gentle agitation. […] The ELISA was developed by the addition of 100 μl/well of TMB substrate (ThermoFischer Scientific, cat. #34021), stabilized with 50 μl/well of stop solution (2N sulfuric acid) and absorbance signals read at 450 nm and 620 nm.

[2] = target: T2, TGFb3 (species not stated) (Homo sapiens (Human), UniProt P10600 301-412); assay: SPR (Biacore), single-cycle kinetics; TGFb3 immobilized directly, Fab as soluble analyte
T2 construct: also called TGFβ3; TGF-β3
T2 sequence: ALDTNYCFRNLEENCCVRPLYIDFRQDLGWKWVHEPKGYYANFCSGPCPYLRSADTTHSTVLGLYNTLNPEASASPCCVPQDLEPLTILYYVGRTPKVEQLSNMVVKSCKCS
Experimental: TGFb3 immobilized directly; Fab as soluble analyte (0 2.5 nM). Single cycle kinetics were conducted as follows Contact: 360 s; Dissociation: 500 s; Flow rate: 30 μl/min.
Binding affinities of the Fabs were in the pM range.

[3] = target: T3, TGFb3 (species not stated) (UniProt P10600 301-412); assay: Biacore single-cycle kinetics
T3 chain: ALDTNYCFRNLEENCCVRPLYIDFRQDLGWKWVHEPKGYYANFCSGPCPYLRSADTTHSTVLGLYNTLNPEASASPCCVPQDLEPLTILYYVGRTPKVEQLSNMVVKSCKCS

[4] = target: T1, human recombinant TGF-b3 (Shenandoah …); assay: competition ELISA on hTGF-ß3-coated plate; competitor biotinylated murine 1901
Experimental: Nunc Maxisorb ELISA plates were coated overnight at 8° C. with 0.5 μg/ml hTGF-ß1 (Peter Sun, NIH) or hTGF-ß3 (Shenandoah Biotech) at 0.5 μg/ml in 40 mM glycine buffer pH 9. Plates were washed and blocked with 10% FCS for 1 h at 37° C. […] After incubation for 2h at 37° C. plates were washed, Avidine-HRP added and incubated for 1 h at 37° C. Plates washed again, TMB substrate was added and bound biotinylated antibody was quantitated by measuring color development in an ELISA reader at a wave length of 450 nm.
The potency of the humanized LCR1901 IgG4 antibody variants to compete with the parental murine antibody for binding to TGFb3 was assessed by ELISA.

[5] = target: T1, human recombinant TGF-b3 (Shenandoah …); assay: TGFβ specificity ELISA; HEK293-6E supernatant
[6] = target: T1, human recombinant TGF-b3 (Shenandoah …); assay: ELISA; scFv culture on plate-coated TGF-b3, anti-cmyc detection
Experimental: as §1, §2

[7] = target: T1, human recombinant TGF-b3 (Shenandoah …); assay: phage ELISA on plate-coated TGF-b3, anti-fd bacteriophage detection
Experimental: as §1
For the phage ELISA, 100 μl of primary rabbit anti-fd bacteriophage Ab (Sigma, cat. #B7786) diluted 1/1000 in PBS+1% BSA was added to wells followed by a 1 h incubation at room temperature with gentle agitation. The plate was washed 4× with PBST before the addition of 100 μl of secondary mouse anti-rabbit IgG (Υ-chain specific) HRP conjugate (Sigma, cat. #A1949) diluted 1/15000 in PBS+1% BSA. […]

B1: LCR1901_GLv1_scFv (murine 1901 CDRs grafted onto IGKV1-39*01/IGHV1-69*08, scFv) (scFv)
scFv: DIQMTQSPSSLSASVGDRVTITCKASQSVINAVAWYQQKPGKAPKLLIYYASNRYTGVPSRFSGSGSGTDFTLTISSLQPEDFATYYCQQDYSSPYTFGGGTKLEIKRTVAARQEGGSGEGGSGESNAAAQVQLVQSGAEVKKPGSSVKVSCKASGYAFSSSWIHWVRQAPGQGLEWIGRIYPGDGDTNYTGKFKGRVTITADKSTSTAYMELSSLRSEDTAVYYCARRMITTQAAMDYWGQGTSVTVSSASTKAS
notes: Expressed in E. coli from pCHV101
Question: Does B1 bind [1]?
Answer: Result: binds

B2: 1901-1D Fab (LCR1901_VH_1G10m_03(K)-LCR1901_VK_GLv1_03(F) expressed as Fab) (Fab, V domains shown)
VH: QVQLVQSGAEVKKPGSSVKVSCKASGYTFSSSWIHWVKQRPGKGLEWIGRIYPGDGDTDYSEKFQGRVTITADKSTSTAYMELSSLRSEDTAVYYCARRMITTQAALDYWGQGTLVTVSS
VL: DIQMTQSPSSLSASVGDRVTITCKASQSVINAVAWYQQKPGQSPKLLIYYASNRYTGVPDRFSGSGYGTDFTFTISSLQAEDVAVYYCQQDYSSPYTFGGGTKVEIK
Question: Which results are given for B2?
Answer: binding result [2]: binds; Kd [3]: 364 pM

B3: 1901-1A Fab (LCR1901_VH_1G10m-LCR1901_VK_GLv1_05(H) expressed as Fab) (Fab, V domains shown)
VH: QVQLVQSGAEVKKPGSSVKVSCKASGYTFSSSWIHWVRQAPGQGLEWIGRIYPGDGDTDYSEKFQGRVTITADKSTSTAYMELSSLRSEDTAVYYCARRMITTQAALDYWGQGTLVTVSS
VL: DIQMTQSPSSLSASVGDRVTITCKASQSVINAVAWYQQKPGKAPKLLIYYASNRYTGVPDRFSGSGYGTDFTFTISSLQAEDVAVYYCQQDYSSPYTFGGGTKVEIK
Question: Does B3 bind [2]?
Answer: Result: binds

B4: 1901-1B Fab (LCR1901_VH_1G10m_03(K)-LCR1901_VK_GLv1_05(H) expressed as Fab) (Fab, V domains shown)
VH: QVQLVQSGAEVKKPGSSVKVSCKASGYTFSSSWIHWVKQRPGKGLEWIGRIYPGDGDTDYSEKFQGRVTITADKSTSTAYMELSSLRSEDTAVYYCARRMITTQAALDYWGQGTLVTVSS
VL: DIQMTQSPSSLSASVGDRVTITCKASQSVINAVAWYQQKPGKAPKLLIYYASNRYTGVPDRFSGSGYGTDFTFTISSLQAEDVAVYYCQQDYSSPYTFGGGTKVEIK
Question: With B4 as the binder, how does the Kd [3] read?
Answer: The Kd was 285 pM.

B5: 1901-1C Fab (LCR1901_VH_1G10m-LCR1901_VK_GLv1_03(F) expressed as Fab) (Fab, V domains shown)
VH: QVQLVQSGAEVKKPGSSVKVSCKASGYTFSSSWIHWVRQAPGQGLEWIGRIYPGDGDTDYSEKFQGRVTITADKSTSTAYMELSSLRSEDTAVYYCARRMITTQAALDYWGQGTLVTVSS
VL: DIQMTQSPSSLSASVGDRVTITCKASQSVINAVAWYQQKPGQSPKLLIYYASNRYTGVPDRFSGSGYGTDFTFTISSLQAEDVAVYYCQQDYSSPYTFGGGTKVEIK
Question: Does B5 bind [2]?
Answer: Result: binds

Question: And the Kd [3]?
Answer: Its Kd is 300 pM.

B6: 1901-1A, LCR1901_VH_1G10m-LCR1901_VK_GLv1_05(H), human IgG4 (S228P) (antibody, V domains shown)
VH: QVQLVQSGAEVKKPGSSVKVSCKASGYTFSSSWIHWVRQAPGQGLEWIGRIYPGDGDTDYSEKFQGRVTITADKSTSTAYMELSSLRSEDTAVYYCARRMITTQAALDYWGQGTLVTVSS
VL: DIQMTQSPSSLSASVGDRVTITCKASQSVINAVAWYQQKPGKAPKLLIYYASNRYTGVPDRFSGSGYGTDFTFTISSLQAEDVAVYYCQQDYSSPYTFGGGTKVEIKR
notes: the latter are used; also called LCR1901-1A
Question: Does B6 bind [4]?
Answer: Result: binds

B7: 1901_Glv1 (graft) human IgG1 (antibody, V domains shown)
VH: QVQLVQSGAEVKKPGSSVKVSCKASGYAFSSSWIHWVRQAPGQGLEWIGRIYPGDGDTNYTGKFKGRVTITADKSTSTAYMELSSLRSEDTAVYYCARRMITTQAAMDYWGQGTSVTVSS
VL: DIQMTQSPSSLSASVGDRVTITCKASQSVINAVAWYQQKPGKAPKLLIYYASNRYTGVPSRFSGSGSGTDFTLTISSLQPEDFATYYCQQDYSSPYTFGGGTKVEIK
notes: Tested as HEK293-6E supernatant; also called LCR1901_GLv1 mAb (IgG1)
Question: Does B7 bind [5]?
Answer: Result: binds

B8: 1901-1D, LCR1901_VH_1G10m_03(K)-LCR1901_VK_GLv1_03(F), human IgG4 (S228P) (antibody, V domains shown)
VH: QVQLVQSGAEVKKPGSSVKVSCKASGYTFSSSWIHWVKQRPGKGLEWIGRIYPGDGDTDYSEKFQGRVTITADKSTSTAYMELSSLRSEDTAVYYCARRMITTQAALDYWGQGTLVTVSS
VL: DIQMTQSPSSLSASVGDRVTITCKASQSVINAVAWYQQKPGQSPKLLIYYASNRYTGVPDRFSGSGYGTDFTFTISSLQAEDVAVYYCQQDYSSPYTFGGGTKVEIKR
notes: the latter are used; also called LCR1901-1D
Question: Does B8 bind [4]?
Answer: Result: binds

B9: 1901-1C, LCR1901_VH_1G10m-LCR1901_VK_GLv1_03(F), human IgG4 (S228P) (antibody, V domains shown)
VH: QVQLVQSGAEVKKPGSSVKVSCKASGYTFSSSWIHWVRQAPGQGLEWIGRIYPGDGDTDYSEKFQGRVTITADKSTSTAYMELSSLRSEDTAVYYCARRMITTQAALDYWGQGTLVTVSS
VL: DIQMTQSPSSLSASVGDRVTITCKASQSVINAVAWYQQKPGQSPKLLIYYASNRYTGVPDRFSGSGYGTDFTFTISSLQAEDVAVYYCQQDYSSPYTFGGGTKVEIKR
notes: also called LCR1901-1C
Question: Does B9 bind [4]?
Answer: Result: binds

B10: LCR1901_scFv (murine 1901 VH and VL reformatted as soluble scFv) (scFv)
scFv: SFVMTQTPKFLLVSAGDRVTITCKASQSVINAVAWYQQKPGQSPKLLIYYASNRYTGVPDRFTGNGYGTDFTFTISTVQAEDLAVYFCQQDYSSPYTFGGGTKLEIKRTVAARQEGGSGEGGSGESNAAAQVLLQQSGPELVKPGASVKISCKASGYAFSSSWIHWVKQRPGKGLEWIGRIYPGDGDTNYTGKFKGKATLTADKSSSTAYMQLSSLTSEDSAVYFCARRMITTQAAMDYWGQGTSVTVSSASTKAS
notes: Expressed in E. coli from pCHV101 and tested as culture; also called LCR1901_soluble scFv; parental soluble scFv
Question: Does B10 bind [6]?
Answer: Result: binds

B11: LCR1901_Phage (murine 1901 scFv fused to the pIII coat protein of filamentous bacteriophage) (scFv)
scFv: SFVMTQTPKFLLVSAGDRVTITCKASQSVINAVAWYQQKPGQSPKLLIYYASNRYTGVPDRFTGNGYGTDFTFTISTVQAEDLAVYFCQQDYSSPYTFGGGTKLEIKRTVAARQEGGSGEGGSGESNAAAQVLLQQSGPELVKPGASVKISCKASGYAFSSSWIHWVKQRPGKGLEWIGRIYPGDGDTNYTGKFKGKATLTADKSSSTAYMQLSSLTSEDSAVYFCARRMITTQAAMDYWGQGTSVTVSSASTKAS
notes: not shown: pIII coat protein of filamentous bacteriophage from the pCHV101 phagemid
Question: Does B11 bind [7]?
Answer: Result: binds

B12: 1901_Chimeric (mouse 1901 variable domains fused to human IgG1 Fc) (antibody, V domains shown)
VH: QVLLQQSGPELVKPGASVKISCKASGYAFSSSWIHWVKQRPGKGLEWIGRIYPGDGDTNYTGKFKGKATLTADKSSSTAYMQLSSLTSEDSAVYFCARRMITTQAAMDYWGQGTSVTVSS
VL: SFVMTQTPKFLLVSAGDRVTITCKASQSVINAVAWYQQKPGQSPKLLIYYASNRYTGVPDRFTGNGYGTDFTFTISTVQAEDLAVYFCQQDYSSPYTFGGGTKLEIK
notes: Tested as HEK293-6E supernatant; also called murine chimeras
Question: Does B12 bind [5]?
Answer: Result: binds
